Assay [1] concerns 12 predominant HLA II molecules. Briefly: HLA II/peptide binding assays, count over the panel. The arrangement: species or system human. The note with it: relative activity of less than 100 characterizes the active peptides. The source says: The assays for binding to HLA II molecules are competition binding assays with immunoenzymatic visualization, as described in U.S. Pat. No. 6,649,166 and PCT international application WO 03/040299, respectively, for the HLA-DR and HLA-DP4 molecules. The implementation of these assays for measuring the binding activity of peptides derived from various antigens is illustrated in U.S. Pat. No. 6,649,166 and PCT international applications WO 02/090382, WO 03/040299 and WO 2004/014936.
The sensitivity of each test is reflected by the IC50 values observed with the nonbiotinylated peptides which correspond to the tracers. […] The results are expressed in the form of relative activity (ratio of the IC50 of the competitor peptide to that of the reference peptide (nonbiotinylated peptide which corresponds to the tracer)). A relative activity of less than 100 characterizes the active peptides.

Another assay addresses HLA-DR4 (DRB1*0401) (Homo sapiens, UniProt P01903+P01911, A100K/A169T/F76Y/I96L/K127E/L162R/M171V/N62H/P40V/Q125Y/R42H/S133A/S149N/S66Y/V115G/V209L/W38E). Kind of assay: HLA II/peptide competition binding assay, DR4. The note with it: ratio of IC50 of competitor peptide to IC50 of reference peptide; mean of at least two independent experiments; less than 100 = active.
The target of another assay is HLA-DR3 (DRB1*0301) (Homo sapiens, UniProt P01903+P01911, A100K/A102G/A103R/A169T/F55Y/I96L/K41T/L162R/M171V/P40S/Q125H/Q178H/Q39Y/R42S/S66N/T106N/T262R/W38E/Y61H). Briefly: HLA II/peptide competition binding assay, DR3. The following applies: ratio of IC50 of competitor peptide to IC50 of reference peptide; mean of at least two independent experiments; less than 100 = active.

The target of another assay is HLA-DR13 (DRB1*1301) (Homo sapiens, UniProt P01903+P01911, A100E/A169T/K41T/L162R/M171V/P40S/Q125H/Q178H/Q39Y/Q99D/R42S/S66N/T262R/W38E/Y61H). Kind of assay: HLA II/peptide competition binding assay, DR13. The note with it: ratio of IC50 of competitor peptide to IC50 of reference peptide; mean of at least two independent experiments; less than 100 = active.
The target of another assay is HLA-DR15 (DRB1*1501) (Homo sapiens, UniProt P01903+P01911). Briefly: HLA II/peptide competition binding assay, DR15. The following applies: ratio of IC50 of competitor peptide to IC50 of reference peptide; mean of at least two independent experiments; less than 100 = active.
For a further assay, the target named is HLA-DR1 (DRB1*0101) (Homo sapiens, UniProt P01903+P01911, A100R/D57E/F55L/F60I/F76Y/I96L/L162R/M171V/P40L/Q125E/R42F/V115G/Y59C). Type of assay: binding. The following applies: ratio of IC50 of competitor peptide to IC50 of reference peptide; mean of at least two independent experiments; less than 100 = active.
The target in another assay is HLA-DR11 (DRB1*1101) (Homo sapiens, UniProt P01903+P01911, A100R/A169T/A87E/I96F/K41T/L162R/M171V/P40S/Q125H/Q178H/Q39Y/Q99D/R42S/S66Y/T262R/V115G/W38E). Type of assay: binding. The note with it: ratio of IC50 of competitor peptide to IC50 of reference peptide; mean of at least two independent experiments; less than 100 = active.
The next assay deals with T1, HLA-DP402 (DPB1*0402) (Homo sapiens, UniProt P04440+P20036, A65V/A84D/A85E/L207M).
T1 sequence (P04440 30-258 A65V/A84D/A85E): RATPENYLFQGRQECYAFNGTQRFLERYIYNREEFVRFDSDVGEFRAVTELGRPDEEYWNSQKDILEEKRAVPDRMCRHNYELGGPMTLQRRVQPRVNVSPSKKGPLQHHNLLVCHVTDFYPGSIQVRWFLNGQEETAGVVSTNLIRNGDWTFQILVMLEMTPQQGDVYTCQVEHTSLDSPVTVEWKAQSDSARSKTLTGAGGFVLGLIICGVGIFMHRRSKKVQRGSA
T1 sequence (P20036 29-260): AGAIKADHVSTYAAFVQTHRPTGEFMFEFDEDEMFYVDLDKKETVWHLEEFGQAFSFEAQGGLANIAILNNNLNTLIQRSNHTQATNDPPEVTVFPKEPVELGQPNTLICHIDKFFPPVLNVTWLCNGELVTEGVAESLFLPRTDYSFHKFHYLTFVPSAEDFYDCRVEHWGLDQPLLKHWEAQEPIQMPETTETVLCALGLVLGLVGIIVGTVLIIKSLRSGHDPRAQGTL
It is filed as binding. The following applies: ratio of IC50 of competitor peptide to IC50 of reference peptide; mean of at least two independent experiments; less than 100 = active.

In another assay the target is HLA-DRB4 (DRB4*0101) (Homo sapiens, UniProt P01903+P13762, G164S). Kind of assay: HLA II/peptide competition binding assay, DRB4. The following applies: ratio of IC50 of competitor peptide to IC50 of reference peptide; mean of at least two independent experiments; less than 100 = active.
In another assay the target is HLA-DR7 (DRB1*0701) (Homo sapiens, UniProt P01903+P01911, A100R/A102G/A103Q/D57E/D86V/E43K/F76Y/K127E/L162R/M171V/P40G/Q125H/Q99D/R33Q/R42Y/R54Q/S133A/S66F/T210M/V115G/Y107V/Y59L/Y89S). Briefly: HLA II/peptide competition binding assay, DR7. The note with it: ratio of IC50 of competitor peptide to IC50 of reference peptide; mean of at least two independent experiments; less than 100 = active.

The target in another assay is T2, HLA-DP401 (DPB1*0401) (Homo sapiens, UniProt P04440+P20036).
T2 sequence (P04440 30-258): T1 sequence (P04440 30-258 A65V/A84D/A85E) with V36A, D55A, E56A
T2 sequence (P20036 29-260): T1 sequence (P20036 29-260)
Type of assay: binding. The following applies: ratio of IC50 of competitor peptide to IC50 of reference peptide; mean of at least two independent experiments; less than 100 = active.

The target of the next assay is HLA-DRB3 (DRB3*0101) (Homo sapiens, UniProt P01903+P79483). Briefly: HLA II/peptide competition binding assay, DRB3. The following applies: ratio of IC50 of competitor peptide to IC50 of reference peptide; mean of at least two independent experiments; less than 100 = active.
A further assay addresses HLA-DRB5 (DRB5*0101) (Homo sapiens, UniProt P01903+Q30154). Kind of assay: HLA II/peptide competition binding assay, DRB5. The note with it: ratio of IC50 of competitor peptide to IC50 of reference peptide; mean of at least two independent experiments; less than 100 = active.

Results on five substances are retold here after patent publication US20110159022A1, “Immunogenic Peptides Derived from the Midkine Protein, as an Anticancer Vaccine” (priority 2008, published 2011).

Residue numbers refer to the chain shown, from its start.

Take “M Q H R G F L L L T L L A L L (MQHRGFLLLTLLALL; MDK 1-15 peptide)”: the “Total (number of the 12 predominant HLA II molecules bound)” value in assay [1] is given as 5; in [1] (listed as 1-15), “several”. Also, the “Relative binding activity, DR4” value in the assay with HLA-DR4 (DRB1*0401) came to 226. Moreover, the “Relative binding activity, DR3” value with HLA-DR3 (DRB1*0301) is reported as more than 419. Besides, the “Relative binding activity, DR13” value with HLA-DR13 (DRB1*1301) is on record as >2 537. Besides, in the assay with HLA-DR15 (DRB1*1501), the “Relative binding activity, DR15” value is 211.
Take “G T K V R Q G T L K K A R Y N (GTKVRQGTLKKARYN) [MDK 99-113]”: in the assay with HLA-DR1 (DRB1*0101), the “Relative binding activity, DR1” value is 3 000. Further, the “Total (number of the 12 predominant HLA II molecules bound)” value in assay [1] worked out at 1. The “Relative binding activity, DR4” value in the assay with HLA-DR4 (DRB1*0401) is on record as >1 812. Also, the “Relative binding activity, DR11” value with HLA-DR11 (DRB1*1101) was >1 086. In addition, the “Relative binding activity, DR3” value with HLA-DR3 (DRB1*0301) is more than 419. In addition, the “Relative binding activity, DP402” value with HLA-DP402 (DPB1*0402) is reported as more than 976. Further, the “Relative binding activity, DRB4” value with HLA-DRB4 (DRB4*0101) is >28 868. Moreover, in the assay with HLA-DR7 (DRB1*0701), the “Relative binding activity, DR7” value is listed as >2 479. In addition, the “Relative binding activity, DR15” value with HLA-DR15 (DRB1*1501) was more than 529. In addition, in the assay with HLA-DP401 (DPB1*0401), the “Relative binding activity, DP401” value is reported as more than 879. The “Relative binding activity, DRB3” value with HLA-DRB3 (DRB3*0101) is on record as more than 485.
Turning to “C K Y K F E N W G A C D G G T (CKYKFENWGACDGGT) [MDK 84-98]”, the “Relative binding activity, DR1” value with HLA-DR1 (DRB1*0101) is recorded as 187. In addition, the “Total (number of the 12 predominant HLA II molecules bound)” value in assay [1] came to 2. Moreover, the “Relative binding activity, DR11” value with HLA-DR11 (DRB1*1101) is listed as >1 086. Moreover, the “Relative binding activity, DR3” value with HLA-DR3 (DRB1*0301) is recorded as more than 419. Moreover, in the assay with HLA-DRB4 (DRB4*0101), the “Relative binding activity, DRB4” value was >28 868. Moreover, the “Relative binding activity, DR7” value in the assay with HLA-DR7 (DRB1*0701) is >2 479. For the same substance, the “Relative binding activity, DR13” value with HLA-DR13 (DRB1*1301) was >2 537. The “Relative binding activity, DR15” value with HLA-DR15 (DRB1*1501) is recorded as 141. In the assay with HLA-DRB3 (DRB3*0101), the “Relative binding activity, DRB3” value was more than 485.
As for “C G V G F R E G T C G A Q T Q (CGVGFREGTCGAQTQ) [MDK 52-64]”, the “Total (number of the 12 predominant HLA II molecules bound)” value in assay [1] stood at 1. For the same substance, the “Relative binding activity, DRB5” value with HLA-DRB5 (DRB5*0101) is given as >2 100. Also, in the assay with HLA-DR3 (DRB1*0301), the “Relative binding activity, DR3” value is recorded as more than 419. The “Relative binding activity, DP402” value in the assay with HLA-DP402 (DPB1*0402) is on record as more than 976. Besides, the “Relative binding activity, DRB4” value in the assay with HLA-DRB4 (DRB4*0101) is >28 868. Besides, the “Relative binding activity, DR7” value in the assay with HLA-DR7 (DRB1*0701) is given as >2 479. The “Relative binding activity, DR13” value with HLA-DR13 (DRB1*1301) is given as >2 537. For the same substance, the “Relative binding activity, DR15” value with HLA-DR15 (DRB1*1501) is more than 529. In addition, the “Relative binding activity, DP401” value in the assay with HLA-DP401 (DPB1*0401) is more than 879. Further, the “Relative binding activity, DRB3” value with HLA-DRB3 (DRB3*0101) is recorded as more than 485.
As for “E T I R V T K P C T P K T K A (ETIRVTKPCTPKTKA) [MDK 119-133]”, the “Relative binding activity, DR4” value with HLA-DR4 (DRB1*0401) is 1 289. Besides, the “Relative binding activity, DR3” value in the assay with HLA-DR3 (DRB1*0301) is given as more than 419. Moreover, in the assay with HLA-DP402 (DPB1*0402), the “Relative binding activity, DP402” value was more than 976. The “Relative binding activity, DRB4” value with HLA-DRB4 (DRB4*0101) was >28 868. The “Relative binding activity, DR13” value in the assay with HLA-DR13 (DRB1*1301) is on record as >2 537. Besides, in the assay with HLA-DR15 (DRB1*1501), the “Relative binding activity, DR15” value was more than 529. In the assay with HLA-DP401 (DPB1*0401), the “Relative binding activity, DP401” value was more than 879. Further, the “Relative binding activity, DRB3” value with HLA-DRB3 (DRB3*0101) was more than 485.
